Source: patent US20240174727A1, “LONG-ACTING NATRIURETIC PEPTIDES AND USES THEREOF” (Eli Lilly and Company, priority 2022, published 2024)
Numbered stars: 1 amine (or outer) side, 2 acyl side, 3 side chain; on linkers, the order of the positions; unused ones are H or OH. Bridge positions count the residues as written; N and C are the ends. Square brackets hold non-standard residues; d marks the D form. * marks the point of attachment. thioacetal = thioacetal linkage between two cysteines (intrachain bond at the bracketed Cys); C20 diacid = O=C(O)CCCCCCCCCCCCCCCCCCC(=O)*; γGlu = O=C(O)[C@H](CCC(=O)[*:2])N[*:1]; Orn = NCCC[C@H](N)C(=O)O; Dap = NC[C@H](N)C(=O)O

Assays:
rat NPRA = molecular target: T1, rat NPRA (rat, UniProt P18910 29-1057); assay: cell-based or functional assay
T1 sequence (looked up): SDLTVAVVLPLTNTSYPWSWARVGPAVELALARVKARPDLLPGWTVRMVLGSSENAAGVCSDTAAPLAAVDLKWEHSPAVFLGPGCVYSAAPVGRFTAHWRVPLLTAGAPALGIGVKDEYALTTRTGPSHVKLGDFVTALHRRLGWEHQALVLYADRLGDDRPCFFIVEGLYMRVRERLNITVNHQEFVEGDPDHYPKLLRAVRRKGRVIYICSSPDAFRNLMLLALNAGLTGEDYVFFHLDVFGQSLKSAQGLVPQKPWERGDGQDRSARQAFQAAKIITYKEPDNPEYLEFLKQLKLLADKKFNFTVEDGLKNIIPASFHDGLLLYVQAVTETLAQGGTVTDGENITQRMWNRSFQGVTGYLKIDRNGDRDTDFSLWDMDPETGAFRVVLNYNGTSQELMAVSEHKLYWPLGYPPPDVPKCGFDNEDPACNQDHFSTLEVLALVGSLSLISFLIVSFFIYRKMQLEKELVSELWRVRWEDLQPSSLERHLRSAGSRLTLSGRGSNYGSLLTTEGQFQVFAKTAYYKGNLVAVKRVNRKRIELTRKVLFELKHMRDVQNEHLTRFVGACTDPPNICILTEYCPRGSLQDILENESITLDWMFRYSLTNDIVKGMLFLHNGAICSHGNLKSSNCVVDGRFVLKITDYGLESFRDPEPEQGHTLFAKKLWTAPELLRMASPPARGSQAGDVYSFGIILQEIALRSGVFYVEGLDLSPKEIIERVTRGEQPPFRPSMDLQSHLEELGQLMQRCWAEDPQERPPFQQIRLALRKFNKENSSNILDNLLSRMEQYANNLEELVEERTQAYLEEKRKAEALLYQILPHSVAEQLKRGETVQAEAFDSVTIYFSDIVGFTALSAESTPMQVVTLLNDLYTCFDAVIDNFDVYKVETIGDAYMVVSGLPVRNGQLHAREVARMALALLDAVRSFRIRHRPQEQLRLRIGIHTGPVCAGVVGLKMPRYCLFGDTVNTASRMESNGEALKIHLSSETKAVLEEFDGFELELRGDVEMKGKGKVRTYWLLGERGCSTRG

human NPRA = molecular target: T2, human NPRA (human, UniProt P16066 33-1061); assay: cell-based or functional assay
T2 sequence (looked up): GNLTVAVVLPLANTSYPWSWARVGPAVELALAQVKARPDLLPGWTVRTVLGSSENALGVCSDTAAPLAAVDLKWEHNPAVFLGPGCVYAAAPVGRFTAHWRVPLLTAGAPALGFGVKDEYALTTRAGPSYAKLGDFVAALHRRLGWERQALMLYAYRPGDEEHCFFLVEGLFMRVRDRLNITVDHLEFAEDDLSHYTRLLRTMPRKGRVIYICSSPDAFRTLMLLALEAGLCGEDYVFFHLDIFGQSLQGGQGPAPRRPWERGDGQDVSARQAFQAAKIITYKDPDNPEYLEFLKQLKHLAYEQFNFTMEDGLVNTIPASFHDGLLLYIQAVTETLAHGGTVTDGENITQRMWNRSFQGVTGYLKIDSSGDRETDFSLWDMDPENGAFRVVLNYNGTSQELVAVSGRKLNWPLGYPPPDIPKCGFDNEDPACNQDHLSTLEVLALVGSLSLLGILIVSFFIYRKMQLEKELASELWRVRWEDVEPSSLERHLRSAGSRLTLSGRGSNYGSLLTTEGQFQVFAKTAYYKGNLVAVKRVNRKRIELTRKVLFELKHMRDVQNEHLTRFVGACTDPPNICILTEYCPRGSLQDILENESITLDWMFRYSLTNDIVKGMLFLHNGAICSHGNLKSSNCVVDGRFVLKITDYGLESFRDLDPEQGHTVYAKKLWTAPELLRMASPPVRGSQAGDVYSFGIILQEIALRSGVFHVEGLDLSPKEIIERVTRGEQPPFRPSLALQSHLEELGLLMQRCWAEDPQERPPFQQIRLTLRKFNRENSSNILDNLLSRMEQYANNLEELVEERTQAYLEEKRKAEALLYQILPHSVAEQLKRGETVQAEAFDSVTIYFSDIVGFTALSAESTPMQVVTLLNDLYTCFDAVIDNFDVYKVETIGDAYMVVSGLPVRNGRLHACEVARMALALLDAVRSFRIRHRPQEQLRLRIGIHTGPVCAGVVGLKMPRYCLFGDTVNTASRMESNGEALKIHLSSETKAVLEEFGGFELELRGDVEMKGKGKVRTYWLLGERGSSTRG

Binder: {C20 diacid-γGlu}-EKEKEKGEKPRSSCFGKRIDRIGRYSGLGCPSFRHGSPSSGAPPPS-NH2 (bridge 14-30 via thioacetal) [HOOC-(CH2)18-CO-(γGlu)-EKEKEKGEKPRSS[CFGKRIDRIGRYSGLGC]PSFRHGSPSSGAPPPS-NH2]
- cGMP Assay (EC50, pM) w/BSA, rNPRA (rat NPRA): 4.18e+06 pM
- cGMP Assay (EC50, pM) w/Casein, rNPRA (rat NPRA): 41100 pM
- cGMP Assay (EC50, pM) w/BSA, hNPRA (human NPRA): 11700 pM
- cGMP Assay (EC50, pM) w/Casein, hNPRA (human NPRA): 692 pM

Binder: {C20 diacid-γGlu}-EKEKEKGEKPRSSCFGKRIDRIG[Orn]YSGLGCPSFRHGSPSSGAPPPS-NH2 (bridge 14-30 via thioacetal) [HOOC-(CH2)18-CO-(γGlu)-EKEKEKGEKPRSS[CFGKRIDRIG-Orn-YSGLGC]PSFRHGSPSSGAPPPS-NH2]
- cGMP Assay (EC50, pM) w/BSA, rNPRA (rat NPRA): 6.52e+06 pM
- cGMP Assay (EC50, pM) w/Casein, rNPRA (rat NPRA): 186000 pM
- cGMP Assay (EC50, pM) w/BSA, hNPRA (human NPRA): 104000 pM
- cGMP Assay (EC50, pM) w/Casein, hNPRA (human NPRA): 497 pM

Binder: {C20 diacid-γGlu}-EKEKEKGEKPRSSCFGG[Dap]IDRIGHYSGLGCPSFRHGSPSSGAPPPS-NH2 (bridge 14-30 via thioacetal) [HOOC-(CH2)18-CO-(γGlu)-EKEKEKGEKPRSS[CFGG-Dap-IDRIGHYSGLGC]PSFRHGSPSSGAPPPS-NH2]
- cGMP Assay (EC50, pM) w/BSA, rNPRA (rat NPRA): 3.8e+06 pM
- cGMP Assay (EC50, pM) w/Casein, rNPRA (rat NPRA): 71700 pM
- cGMP Assay (EC50, pM) w/BSA, hNPRA (human NPRA): 1.41e+06 pM
- cGMP Assay (EC50, pM) w/Casein, hNPRA (human NPRA): 5350 pM

Binder: {C20 diacid-γGlu}-EKEKEKGEKPRSSCFGG[Dap]IDRIGHQSGLGCPSFRHGSPSSGAPPPS-NH2 (bridge 14-30 via thioacetal) [HOOC-(CH2)18-CO-(γGlu)-EKEKEKGEKPRSS[CFGG-Dap-IDRIGHQSGLGC]PSFRHGSPSSGAPPPS-NH2]
- cGMP Assay (EC50, pM) w/BSA, rNPRA (rat NPRA): 1.73e+06 pM
- cGMP Assay (EC50, pM) w/Casein, rNPRA (rat NPRA): 200000 pM
- cGMP Assay (EC50, pM) w/BSA, hNPRA (human NPRA): 2.87e+06 pM
- cGMP Assay (EC50, pM) w/Casein, hNPRA (human NPRA): 19700 pM
